Molecular target: T1, BMC02 (uncultured bacterium (metagenome))
T1 chain: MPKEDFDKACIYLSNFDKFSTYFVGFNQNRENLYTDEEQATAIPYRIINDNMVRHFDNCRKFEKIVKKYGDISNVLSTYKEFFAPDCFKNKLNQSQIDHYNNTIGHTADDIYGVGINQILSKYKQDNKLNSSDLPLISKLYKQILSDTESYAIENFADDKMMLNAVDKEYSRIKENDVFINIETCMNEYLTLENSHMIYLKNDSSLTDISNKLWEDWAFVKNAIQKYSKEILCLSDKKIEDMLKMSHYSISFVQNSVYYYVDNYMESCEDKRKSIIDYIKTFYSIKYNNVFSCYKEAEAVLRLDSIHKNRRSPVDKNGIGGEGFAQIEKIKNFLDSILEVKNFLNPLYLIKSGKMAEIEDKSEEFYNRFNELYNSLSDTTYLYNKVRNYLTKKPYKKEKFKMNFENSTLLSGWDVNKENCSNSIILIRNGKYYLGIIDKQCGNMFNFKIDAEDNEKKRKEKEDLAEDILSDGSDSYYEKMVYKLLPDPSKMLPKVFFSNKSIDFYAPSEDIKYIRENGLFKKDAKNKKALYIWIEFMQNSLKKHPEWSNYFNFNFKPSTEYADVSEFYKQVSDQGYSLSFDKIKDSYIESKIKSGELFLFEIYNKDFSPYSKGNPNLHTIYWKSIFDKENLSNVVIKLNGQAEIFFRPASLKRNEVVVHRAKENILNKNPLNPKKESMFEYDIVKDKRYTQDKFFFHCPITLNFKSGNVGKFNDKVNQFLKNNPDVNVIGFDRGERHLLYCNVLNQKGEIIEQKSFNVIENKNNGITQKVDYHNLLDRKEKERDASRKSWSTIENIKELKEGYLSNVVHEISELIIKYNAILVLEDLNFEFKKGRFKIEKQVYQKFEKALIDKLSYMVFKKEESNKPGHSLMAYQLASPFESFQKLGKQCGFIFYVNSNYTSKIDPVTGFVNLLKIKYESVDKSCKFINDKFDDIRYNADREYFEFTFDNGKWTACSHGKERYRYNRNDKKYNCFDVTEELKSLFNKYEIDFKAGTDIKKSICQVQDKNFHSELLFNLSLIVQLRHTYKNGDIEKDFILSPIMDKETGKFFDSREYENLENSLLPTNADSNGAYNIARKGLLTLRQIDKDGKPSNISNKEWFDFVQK
Assay: cell_activity; PAM not stated; E. coli depletion, 30 C
Outline: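 E. coli carrying arabinose-induced (0.2%) BMC nuclease, grown at 30° C., made electrocompetent and electroporated with 50-100 ng plasmid carrying gRNA against malQ. Transformants plated on selective M9-glucose agar with kanamycin/ampicillin (± nourseothricin), and growth scored after 48 h at 30° C.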

B1: malQ gRNA (BMC stem-loop + 24 nt spacer) ; malQ protospacer (ssRNA ; dsDNA)
RNA: GAUUUCUACUAUUGUAGAUGUGGCGGUACGUUGAUGCAUCGCG
DNA 1: GTGGCGGTACGTTGATGCATCGCG
DNA 2: CGCGATGCATCAACGTACCGCCAC
With B1 as the binder, how does the activity read?
The activity was over 99.9 % colony reduction.
